Data reported in paper PMC5085234, “Monomeric gremlin is a novel vascular endothelial growth factor receptor-2 antagonist” (Oncotarget, 2016).
Substitutions are numbered along the chain they refer to. In names and notes the source's numbering stands.

T1: his-tagged gremlin^C141A mutant, rat (rat, UniProt O35793 25-184, C141A)
T1 construct: secreted into the medium; monomer; also called gremlin^C141A monomer; monomeric gremlin^C141A; not shown: His tag, C-terminal, kept
T1 sequence (looked up): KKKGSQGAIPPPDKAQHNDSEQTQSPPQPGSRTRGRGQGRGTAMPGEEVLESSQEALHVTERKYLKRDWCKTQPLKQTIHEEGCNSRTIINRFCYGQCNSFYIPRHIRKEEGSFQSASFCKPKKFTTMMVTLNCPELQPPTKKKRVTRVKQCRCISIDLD

B1: his-tagged gremlin^C141A mutant, rat (natural protein)
chain: T1 sequence (looked up)
B2: endogenous murine gremlin (natural protein, UniProt O70326 25-184, looked up)
chain: T1 sequence (looked up) with A117C
notes: gremlin, mouse, endogenous; immunoprecipitated with anti-gremlin antibody; Seen as 20-24 kDa monomers and 40-44 kDa dimers under non-reducing conditions; source: endogenous, lysates of healthy C57BL/6 murine organs; endogenous, conditioned medium of FGF2-T-MAE cells
B3: his-tagged wild-type gremlin (gremlin^WT), rat (natural protein, UniProt O35793 25-184, looked up)
chain: T1 sequence (looked up) with A117C
notes: secreted into the medium; covalent homodimer through Cys141; The IMAC-purified preparation holds monomer and dimer (used for non-reducing SDS-PAGE and SEC); the heparin 1.2 M NaCl fraction holds only the disulfide-linked dimer (98.5% purity) and is the form used in ELISA, SPR and cell assays; N-glycosylated and non-glycosylated forms are present; also called gremlin^WT dimer; dimeric gremlin^WT; …
B4: human BMP4 (ligand, UniProt P12644 293-408, looked up)
chain: SPKHHSQRARKKNKNCRRHSLYVDFSDVGWNDWIVAPPGYQAFYCHGDCPFPLADHLNSTNHAIVQTLVNSVNSSIPKACCVPTELSAISMLYLDEYDKVVLKNYQEMVVEGCGCR
notes: bone morphogenetic protein 4, human; the ELISA paragraph says only human BMP4; also called immobilized BMP4; source: bought: R&D

Tests used:
[1] = target: extracellular domain D1-7 of human VEGFR2 (ECD-VEGFR2) (human); experiment: SPR; BIAcore X; ECD-VEGFR2 immobilized on CM5 sensorchip (0.036-0.064 pmol/mm^2); gremlin 100 ng/mL to 4 ug/mL injected in HBS-EP; equilibrium responses fitted to the Langmuir equation for monovalent binding
[2] = target: the molecule itself; experiment: non-reducing SDS-PAGE with Western blot; conditioned medium of FGF2-T-MAE cells (treated with increasing H2O2 for 1 hour, then 4 hours fresh medium) immunoprecipitated with anti-gremlin antibody, WB under non-reducing conditions
[3] = target: the molecule itself; experiment: non-reducing SDS-PAGE with Western blot; recombinant his-tagged gremlin purified by IMAC (and heparin-affinity chromatography), SDS-PAGE without beta-mercaptoethanol, anti-gremlin WB, silver staining
[4] = target: B3; experiment: ELISA; 96-well plates coated with 250 ng/mL of human BMP4, increasing concentrations of gremlin, bound gremlin detected with anti-gremlin antibody; conditions: both partners purified
[5] = target: T1, his-tagged gremlin^C141A mutant, rat; experiment: as above; conditions: both partners purified

Binder: B1
Kd [1]: 73 nM

Binder: B2
stoichiometry N [2]: 2

Binder: B3
stoichiometry N [3]: 2 | Kd [1]: 73 nM

Binder: B4
binding result [4]: binds | binding result [5]: binds
